Here are results for one molecule from publication PMC12552968, “The RING-finger domain of Arabidopsis RMR functions as an E3 ligase essential for post-Golgi trafficking” (The Journal of Biological Chemistry, 2025).

The assay addresses T1, Arabidopsis E2 ubiquitin-conjugating enzyme AtUbc30 (Arabidopsis, UniProt Q9FKT3 1-148).
T1 construct: AtUbc30, Arabidopsis E2 ubiquitin-conjugating enzyme, At5g56150; source: E. coli SoluBL21, purified (GSTrap Sepharose, PreScission cleavage, gel filtration)
In words: pull-down; AtUbc30 (50 to 60 μM) with equimolar GST, wildtype or I234Y GST-AtRMR1-RING in the presence of GSTrap Sepharose; 30 mM Tris pH 7.5, 150 mM NaCl, 2 mM DTT; 4 h at 4 °C; eluted with 20 mM reduced glutathione; 15% SDS-PAGE, Coomassie blue. Particulars: both partners purified.

T1 sequence (Q9FKT3 whole entry): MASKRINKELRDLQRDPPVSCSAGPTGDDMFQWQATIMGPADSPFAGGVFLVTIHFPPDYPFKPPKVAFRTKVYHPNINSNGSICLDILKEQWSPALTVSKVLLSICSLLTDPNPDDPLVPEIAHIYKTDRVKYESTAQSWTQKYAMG

B1: GST-tagged RING-H2 domain of Arabidopsis RMR isoform-1 (GST-AtRMR1-RING), wildtype (domain or fragment, UniProt Q9M622 206-283, looked up)
chain: RLDAKLVHTLPCFTFTDSAHHKAGETCAICLEDYRFGESLRLLPCQHAFHLNCIDSWLTKWGTSCPVCKHDIRTETMS
notes: AtRMR1 (receptor-homology-transmembrane-RING-H2 protein 1), Arabidopsis, At5g66160, RING-H2 domain, residues 206-283; The methods tell only the purification of the form with the GST tag cleaved; also called E3; source: E. coli SoluBL21 (pGEX-6p-1), recombinant
Consider B1, for which the binding result is “binds”.
